Assay results: patent publication US20160223529A1 (UNIVERSITY OF QUEENSLAND, published 2016)

Columns and labels:
[1] = biological target: T1, TVMV-AI-ePDZ-Binder; test: Protease activation assay: TVMV activity on a fluorogenic substrate (FIG. 5)
T1 chain: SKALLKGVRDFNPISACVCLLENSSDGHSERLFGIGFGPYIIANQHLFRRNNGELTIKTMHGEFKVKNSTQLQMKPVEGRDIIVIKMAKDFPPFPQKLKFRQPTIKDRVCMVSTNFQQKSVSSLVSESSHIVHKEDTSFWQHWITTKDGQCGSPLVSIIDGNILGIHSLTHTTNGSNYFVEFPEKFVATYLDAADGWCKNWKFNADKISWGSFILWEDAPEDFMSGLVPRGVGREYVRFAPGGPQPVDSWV

[2] = biological target: Calmodulin (Homo sapiens (Human), UniProt P0DP23 4-149); test: Protease activation assay: TVMV activity on a fluorogenic substrate at different calmodulin concentrations (FIG. 3)

B1: ePDZ (designed binder)
chain: SGTSPELGFSISGGVGGRGNPFRPDDDGIFVTRVQPEGPASKLLQPGDKIIQANGYSFINIEHGQAVSLLKTFQNTVELIIVREVGNGAKQEIRVRVEKDGGSGGVSSVPTNLEVVAATPTSLLISWDASYYGVSYYRITYGETGGNSPVQEFTVPYSSSTATISGLKPGVDYTITVYAYSDYYGSHHYSPISINYRTSGC
binding result [1]: binds

B2: TVMV-AI-CalmodulinBinder (enzyme)
chain: SKALLKGVRDFNPISACVCLLENSSDGHSERLFGIGFGPYIIANQHLFRRNNGELTIKTMHGEFKVKNSTQLQMKPVEGRDIIVIKMAKDFPPFPQKLKFRQPTIKDRVCMVSTNFQQKSVSSLVSESSHIVHKEDTSFWQHWITTKDGQCGSPLVSIIDGNILGIHSLTHTTNGSNYFVEFPEKFVATYLDAADGWCKNWKFNADKISWGSFILWEDAPEDFMSGLVPRGVGREYVRFAPRWKKNFIAVSAANRFKKISSSGAL
notes: also called TVMV based calmodulin sensor
binding result [2]: binds
